Data on 6 molecules can be found in patent publication US20120277286A1, “COMPOSITIONS AND METHODS FOR THE TREATMENT OR PREVENTION OF MITOCHONDRIAL DISEASES” (The Government of the USA, as represented by the Secretary, …, priority 2009, published 2012).

Holding throughout (type): cell-based
For test [1], the system named is HeLa cells. The experiment in a line: Parkin in mitochondria-rich membrane fraction, immunoblot. As to conditions: for translocation of YFP-Parkin variant to mitochondria-rich membrane fraction: HeLa, CCCP 1 hr, Western blotting.
From the text: (§1) For PINK1 experiments, cells were fractionated using the Mitochondria Isolation Kit (Pierce), according to manufacturer's specifications with slight modifications. To isolate integral membrane proteins, membrane fractions obtained as above were carbonate extracted with 0.1M Na2CO3 fresh cold buffer and membranes were pelleted, as described in the supplemental methods. For Parkin experiments, cells were fractionated as described previously, with minor modifications described in the supplemental methods (Narendra (2008) J Cell Biol 183: 795-803). The following primary antibodies were used: anti-Parkin (PRK8) monoclonal (Santa Cruz), anti-Tom20 polyclonal (Santa Cruz), anti-cytochrome c monoclonal (BD Biosciences), anti-PINK1 polyclonal (Novus Biologicals), anti-VDAC monoclonal (Calbiochem), anti-GAPDH polyclonal (Sigma-Aldrich), anti-Tubulin monoclonal (Sigma-Aldrich), anti-V5 monoclonal (Invitrogen), anti-GFP polyclonal (Invitrogen).
as §1, with “with slight modifications described in the supplemental methods. To isolate” for “with slight modifications. To isolate”, “minor modifications detailed in the” for “minor modifications described in the”, “supplemental methods (Narendra (2008) J Cell Biol 183: 795-803). The protease protection assay was performed as described previously (Chen (2005) J Biol Chem 280: 26185-26192). Cells were fixed and immunostained as described previously (Narendra (2008)” for “supplemental methods (Narendra (2008)”, “anti-GFP polyclonal (Invitrogen), anti-TIM23 monoclonal (BD Biosciences), and anti-Hsp60 monoclonal (Stressgen).” for “anti-GFP polyclonal (Invitrogen).”

The subject of another test is PINK1. Nature of the test: PINK1 accumulation by fractionation and immunoblotting.
From the text: as §1
as §1, with “with slight modifications described in the supplemental methods. To isolate” for “with slight modifications. To isolate”, “minor modifications detailed in the” for “minor modifications described in the”, “supplemental methods (Narendra (2008) J Cell Biol 183: 795-803). The protease protection assay was performed as described previously (Chen (2005) J Biol Chem 280: 26185-26192). Cells were fixed and immunostained as described previously (Narendra (2008)” for “supplemental methods (Narendra (2008)”, “anti-GFP polyclonal (Invitrogen), anti-TIM23 monoclonal (BD Biosciences), and anti-Hsp60 monoclonal (Stressgen).” for “anti-GFP polyclonal (Invitrogen).”

For test [2], the system named is HeLa cells. The experiment in a line: Parkin colocalization with mitochondria scored by confocal microscopy. As to conditions: for YFP-Parkin (wild type or indicated mutant) colocalization with mitochondria, % of cells: HeLa cells, 1 hour. As to the method: (§2) Cultured cells seeded in borosilicate chamber slides (Thermo Fisher Scientific) were transfected or cotransfected with YFP-Parkin, ECFP-Parkin, mCherry-Parkin, DsRed-Mito (Clontech Laboratories, Inc.), pcDNA3.1 (Invitrogen), vMIA, and/or Drp1K38A constructs using Fugene 6 (Roche). Parkin-myc was a gift from M. Cookson (National Institutes of Health, Bethesda, Md.). Cells were fixed 12-24 hours after transfection with 4% paraformaldehyde in PBS. Cells were stained with following primary antibodies: mouse monoclonal cytochrome c (BD), rabbit polyclonal Tom20 (Santa Cruz Biotechnology, Inc.), mouse monoclonal Parkin PRK8 (Santa Cruz Biotechnology, Inc.), rabbit polyclonal PMP70 (Invitrogen), and/or mouse monoclonal TRAP1 (Abcam); and with the following secondary antibodies: mouse and/or rabbit Alexa 488, 594, and 633 (Invitrogen). For assessment of mitochondrial membrane potential, cells were pulsed with 50 nM Mito-Tracker red (Invitrogen) for 15 min, washed, and incubated for an additional 10 minutes before fixation or imaging. For assessment of cell metabolic potential, cell nuclei were stained with Hoechst 33342 (Invitrogen).
Fixed cells and live cells in the FLIP assay were imaged using an inverted microscope (LSM510 Meta; Carl Zeiss, Inc.) with a 63×/1.4 oil DIC Plan Apo objective at 25° C. and 37° C., respectively. For the FLIP assay, a bleach region of interest (ROI) occupying approximately one eighth of the cell was positioned over a relatively mitochondria-free portion of the cytosol. Cells were alternately bleached (488 nm using a 30-mW argon laser at 75% power and 100% transmission for 150 iterations) and imaged (488 nm at 75% power and 2% transmission) for 10 minutes (—60 cycles over the length of the experiment). Two channel prebleach and postbleach images were obtained with 488 and 594 lasers to assess the position of mitochondria before and after bleaching. Circular ROIs with diameters of ˜1 and 5 μm, respectively, were placed over the mitochondria and cytosol of the target cell, and an ROI of 10 μm was placed over the control cell. Imaging of YFP-Parkin translocation in live HeLa cells was performed on a live cell imager system (UltraView LCI; PerkinElmer) at 35° C. with a 100×/1.45 α-Plan-Fluor objective.
Image contrast and brightness were adjusted in Photoshop (Adobe). Colocalization was assessed with line scans using MetaMorph (MDS Analytical Technologies). For analysis of mitochondrial membrane potential in cells, mitochondrial voxels in each image (the cytochrome c channel threshold was ≧400 au) were segregated into Parkin-positive (the YFP-Parkin channel threshold was ≧1,100 au) or Parkin-negative subsets, and MitoTracker intensity for each voxel was measured using Volocity software (Improvision). For each cell, the mean MitoTracker intensity per voxel was calculated for the Parkin-positive and Parkin-negative subsets. The difference in mean Mito-Tracker intensity between the Parkin-positive and Parkin-negative subsets was calculated using a paired t test. Western blotting HeLa cells stably expressing YFP-Parkin, HEK293 cells, and rat cortical neurons 2 days in vitro were harvested and fractionated as described previously (Karbowski et al., J. Cell Biol. 178: 71-84, 2007). Samples were run on SDS-PAGE and immunoblotted with the following antibodies: polyclonal rabbit anti-GFP (Invitrogen), mouse monoclonal anti-Parkin (PRK8), and mouse monoclonal anti-Porin 31HL (EMD).
(§3) Confocal microscopy of fixed samples, scoring of Parkin recruitment and Parkininduced mitophagy, and live cell imaging were performed as described previously (Narendra (2008) J Cell Biol 183: 795-803). Experiments in Mfn1/2 null cells were performed as described previously with minor modifications.
Confocal microscopy of fixed samples, scoring of Parkin recruitment and Parkin-induced mitophagy, and live cell imageing were performed as described previously (Narendra (2008) J Cell Biol 183: 795-803). […]

Test [3] deals with HeLa cells. Nature of the test: Mitochondrial translocation of Parkin by imaging (Examples 4 and 5). The following applies: HeLa stably expressing YFP-Parkin, MG132 for 8 hrs. As to the method: Cells were cultured in borosilicated chamber slides for imaging, 6-well plates for whole cell lysates, and 100 or 150 mm culture dish for subcellular fractionation. One day after seeding, cells were transfected with indicated constructs using Fugene HD (Roche) or Lipofectamine 2000 (Invitrogen) according to the manufacturer's guidelines.
For immunocytochemistry, cultured cells in borosilicated chamber slides were fixed with 4% paraformaldehyde in PBS (USB) and permeabilized with the indicated detergent. After 30 min blocking with 10% BSA in PBS, cells were stained with the following primary antibodies: antiTom20 polyclonal antibody (Santa Cruz Biotechnology, Inc.) and anti-cytochrome C monoclonal antibody (BD), or anti-Tom20 monoclonal antibody (BD) and anti-GFP polyclonal antibody (Invitrogen) and then with the following secondary antibodies: goat anti-mouse/rabbit IgG antibody conjugated with Alexa Fluor 594/647, respectively. In case of live cell imaging, cells were pulsed with 600 nM TMRE for 5 min to evaluate mitochondrial membrane potential or 10 nM Mitotracker Red for 30 min to see the mitochondrial morphology. Cells were imaged using an inverted microscope (LSM510 Meta; Carl Zeiss) with 63×/1.4 oil DIC Plan Apo objective. Image contrast and brightness were adjusted in LSM image browser (Carl Zeiss).

Test [4] concerns HeLa cells. Nature of the test: Parkin-induced mitophagy, loss of mitochondria by immunocytochemistry. The following applies: HeLa expressing YFP-Parkin variant, CCCP 24 hours. How it is done: as §2, §3
Confocal microscopy of fixed samples, scoring of Parkin recruitment and Parkin-induced mitophagy, and live cell imageing were performed as described previously (Narendra (2008) J Cell Biol 183: 795-803). Experiments in Mfn1/2 null cells were performed as described previously with minor modifications described in the supplemental methods (Narendra (2008) J Cell Biol 183: 795-803).

Changes are numbered by the printed parent chain. Names may count otherwise. Where a SMILES comes first, the peptide text is derived from it. The star is where a group is joined. Cbz = O=C(OCc1ccccc1)*

Regarding `C[C@@H]1C[C@@H]([C@H](O)CC2CC(=O)NC(=O)C2)C(=O)[C@@H](C)C1` [cycloheximide, reference compound], the “effect on YFP-Parkin accumulation in mitochondrial enriched heavy membrane fraction” value with HeLa cells [1] (HeLa YFP-Parkin, CCCP plus cycloheximide) was “blocked”. Further, the “effect on abundance of accumulated full length PINK1” value with PINK1 (HeLa, after 3 hours CCCP, continuous CCCP) is on record as “little effect”. Also, the “effect on depolarization-induced accumulation of endogenous PINK1” value in the test with PINK1 (HeLa, cycloheximide 90 minutes, CCCP 60 minutes, whole cell lysates and membrane fraction) is “blocked”. In the test with HeLa cells [2] (HeLa cells expressing YFP-Parkin, added together with CCCP), the “effect on CCCP-induced Parkin recruitment to mitochondria” value is “blocked”. In the test with HeLa cells [2] (HeLa, 10 μM CCCP 1 hr+100 μM CHX (30 minutes pretreatment)), the “YFP-Parkin colocalization with mitochondria, % of cells” value worked out at 11.3±4.2%.
As for `CC(C)C[C@@H](C=O)NC(=O)[C@H](CC(C)C)NC(=O)[C@H](CC(C)C)NC(=O)OCc1ccccc1` [MG132, reference compound] (Cbz-Leu-Leu-Leu-aldehyde), the “mitochondrial translocation of Parkin” value in the test with HeLa cells [3] is “no mitochondrial translocation of Parkin was detected”. In addition, the “appearance of short form of PINK1” value in the test with PINK1 (HeLa treated with vehicle, 50 μM MG132 for final hour) is reported as “˜52 kDa band appears”.
Take `CC(C)[C@@H]1NC(=O)[C@H](C)OC(=O)[C@@H](C(C)C)NC(=O)[C@@H](C(C)C)OC(=O)[C@H](C(C)C)NC(=O)[C@H](C)OC(=O)[C@@H](C(C)C)NC(=O)[C@@H](C(C)C)OC(=O)[C@H](C(C)C)NC(=O)[C@H](C)OC(=O)[C@@H](C(C)C)NC(=O)[C@@H](C(C)C)OC1=O` [valinomycin]: the “endogenous full length PINK1 (˜63 kDa) level after depolarization” value in the test with PINK1 (HeLa cells, mitochondrial membrane fraction, 10 μM CCCP or 1 μM valinomycin) is on record as “increased”.

B1: R275W: YFP-Parkin mutation in RING1 (protein, UniProt O60260 1-465, looked up, variant R275W)
E3 ubiquitin-protein ligase …: MIVFVRFNSSHGFPVEVDSDTSIFQLKEVVAKRQGVPADQLRVIFAGKELRNDWTVQNCDLDQQSIVHIVQRPWRKGQEMNATGGDDPRNAAGGCEREPQSLTRVDLSSSVLPGDSVGLAVILHTDSRKDSPPAGSPAGRSIYNSFYVYCKGPCQRVQPGKLRVQCSTCRQATLTLTQGPSCWDDVLIPNRMSGECQSPHCPGTSAEFFFKCGAHPTSDKETSVALHLIATNSRNITCITCTDVRSPVLVFQCNSRHVICLDCFHLYCVTRLNDWQFVHDPQLGYSLPCVAGCPNSLIKELHHFRILGEEQYNRYQQYGAEECVLQMGGVLCPRPGCGAGLLPEPDQRKVTCEGGNGLGCGFAFCRECKEAYHEGECSAVFEASGTTTQAYRVDERAAEQARWEAASKETIKKTTKPCPRCHVPVEKNGGCMHMKCPQPQCRLEWCWNCGCEWNRVCMGDHWFDV
modifications: YFP fusion
notes: YFP-Parkin mutation in RING1
Turning to B1, the “translocation of YFP-Parkin variant to mitochondria-rich membrane fraction” value in the test on HeLa cells [1] was “increases localization in the membrane fraction”. The “YFP-Parkin (wild type or indicated mutant) colocalization with mitochondria, % of cells” value in the test on HeLa cells [2] (10 μM CCCP) was 81.7±2.1%. In the test with HeLa cells [4], the “cells with no mitochondria” value was determined as 4.0±4%.

B2: C332S: YFP-Parkin engineered mutation in conserved RING cysteine (protein, UniProt O60260 1-465, looked up, variant C332S)
E3 ubiquitin-protein ligase …: B1 E3 ubiquitin-protein ligase … with W275R, C332S
modifications: YFP fusion
notes: YFP-Parkin engineered mutation in conserved RING cysteine
B2: the “translocation of YFP-Parkin variant to mitochondria-rich membrane fraction” value in the test with HeLa cells [1] is given as “No membrane translocation was detectable”. In the test on HeLa cells [2] (HeLa, 10 μM CCCP, 24 hours), the “recruitment of mutant YFP-Parkin to mitochondria” value is “Mitochondrial recruitment was seen”. In addition, the “recruitment of mutant YFP-Parkin to depolarized mitochondria” value in the test on HeLa cells [2] (HeLa, CCCP 1 hr) is “completely disrupt”.

B3: R42P: YFP-Parkin with pathogenic UBL domain mutation (protein, UniProt O60260 1-465, looked up, variant R42P)
E3 ubiquitin-protein ligase …: B1 E3 ubiquitin-protein ligase … with R42P, W275R
modifications: YFP fusion
notes: YFP-Parkin with pathogenic UBL domain mutation
Take B3: the “translocation of YFP-Parkin variant to mitochondria-rich membrane fraction” value with HeLa cells [1] was “No membrane translocation was detectable”. Moreover, in the test with HeLa cells [2] (10 μM CCCP), the “YFP-Parkin (wild type or indicated mutant) colocalization with mitochondria, % of cells” value came out at 34±5.3%. Besides, the “cells with no mitochondria” value in the test on HeLa cells [4] is reported as 22.0±2.0%.
